Patent publication US20050186575A1

Columns and labels:
[1] = target: HR1 peptide of the SARS-CoV spike protein (SARS-CoV); assay: pooled complexes heated 5 min in 1x Tricine sample buffer, Tricine SDS-PAGE
[2] = target: MHV-A59 spike protein (mouse hepatitis virus strain A59) (UniProt P11224); assay: cell-based or functional assay
[3] = target: T1, HR1 peptide of the MHV-A59 spike protein (amino acid residues 953-1048) (mouse hepatitis virus strain A59), P11224
[4] = target: T1, HR1 peptide of the MHV-A59 spike …; assay: pooled complexes heated 5 min in 1x Tricine sample buffer, Tricine SDS-PAGE

T1 sequence (P11224 953-1048, tags left off): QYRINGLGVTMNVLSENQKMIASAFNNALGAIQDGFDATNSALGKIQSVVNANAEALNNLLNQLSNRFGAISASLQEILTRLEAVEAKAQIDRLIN

HR2 peptide of the SARS-CoV spike protein
temperature of dissociation of the complex [1]: 70 °C

HR2 peptide of the MHV-A59 spike protein (amino acid residues 1216-1254)
EC50 of inhibition of MHV infection of LR7 cells [2]: 900 nM
spike-mediated cell-cell fusion (luciferase activity) (fold reduction at 10 µM) [2]: 1000

GPIEGRDLSLDFEKLNVTLLDLTYEMNRIQDAIKKLNESYINLKE (modifications not checked) [HR2 peptide of the MHV-A59 spike protein (amino acid residues 1216-1254)]
temperature of full dissociation of the complex [3]: 90 °C
temperature of partial dissociation of the complex [3]: 80 °C
temperature up to which the complex remained intact [3]: 70 °C
temperature of dissociation of the complex [4]: 90 °C
